Laboratory results as given in PMC6824681, “Phosphoproteomics reveals that the hVPS34 regulated SGK3 kinase specifically phosphorylates endosomal proteins including Syntaxin-7, Syntaxin-12, RFIP4 and WDR44” (Biochemical Journal, 2019).

T1: GFP-STX12 wild type (Syntaxin-12) (human, UniProt Q86Y82 1-276)
T1 construct: Syntaxin-12 (STX12), human; After IGF1 stimulation about 20% of the stably expressed protein was phosphorylated (Ser139) by phos-tag analysis; also called GFP-STX12 WT; wild-type STX12
T1 sequence (looked up): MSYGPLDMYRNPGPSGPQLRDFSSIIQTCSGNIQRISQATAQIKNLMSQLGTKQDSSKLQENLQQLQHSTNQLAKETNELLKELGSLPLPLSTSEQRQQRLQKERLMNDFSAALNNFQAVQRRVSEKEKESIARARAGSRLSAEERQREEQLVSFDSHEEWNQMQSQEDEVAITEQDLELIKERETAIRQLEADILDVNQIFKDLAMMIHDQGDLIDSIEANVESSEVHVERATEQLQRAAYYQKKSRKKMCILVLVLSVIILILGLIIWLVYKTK


These binders were tested against T1, GFP-STX12 wild type (Syntaxin-12) (assay: co-IP; GFP-STX12 WT or S139A immunoprecipitated from 2 mg lysate with GFP-Trap beads, 4°C, 4 h; two washes with lysis buffer with 0.45 M NaCl, one with 0.15 M NaCl; immunoblot of endogenous partners; cells serum-starved overnight, ± 14H (1 µM, 1 h), ± IGF1 (50 ng/ml, 15 min)). Conditions: partners not purified.

| fold increase of the amount co-immunoprecipitated, IGF1-stimulated against unstimulated cells | Binder |
| --- | --- |
| ~2 fold | VTI1A (natural protein, human (endogenous in HEK293), UniProt Q96AJ9 1-217, looked up, Vti1a (VTI1A), endogenous in HEK293 cells, detected by immunoblot with anti-VTI1A; source: endogenous, HEK293 lysate) MSSDFEGYEQDFAVLTAEITSKIARVPRLPPDEKKQMVANVEKQLEEAKELLEQMDLEVREIPPQSRGMYSNRMRSYKQEMGKLETDFKRSRIAYSDEVRNELLGDDGNSSENQRAHLLDNTERLERSSRRLEAGYQIAVETEQIGQEMLENLSHDREKIQRARERLRETDANLGKSSRILTGMLRRIIQNRILLVILGIIVVITILMAITFSVRRH |
| ~2 fold | Syntaxin 6 (STX6) (natural protein, human (endogenous in HEK293), UniProt O43752 1-255, looked up, Syntaxin-6 (STX6), endogenous in HEK293 cells, detected by immunoblot with anti-STX6; source: endogenous, HEK293 lysate) MSMEDPFFVVKGEVQKAVNTAQGLFQRWTELLQDPSTATREEIDWTTNELRNNLRSIEWDLEDLDETISIVEANPRKFNLDATELSIRKAFITSTRQVVRDMKDQMSTSSVQALAERKNRQALLGDSGSQNWSTGTTDKYGRLDRELQRANSHFIEEQQAQQQLIVEQQDEQLELVSGSIGVLKNMSQRIGGELEEQAVMLEDFSHELESTQSRLDNVMKKLAKVSHMTSDRRQWCAIAILFAVLLVVLILFLVL |
| ~2 fold | VAMP4 (natural protein, human (endogenous in HEK293), UniProt O75379 1-141, looked up, VAMP4, endogenous in HEK293 cells, detected by immunoblot with anti-VAMP4; also called v-SNARE protein VAMP4; source: endogenous, HEK293 lysate) MPPKFKRHLNDDDVTGSVKSERRNLLEDDSDEEEDFFLRGPSGPRFGPRNDKIKHVQNQVDEVIDVMQENITKVIERGERLDELQDKSESLSDNATAFSNRSKQLRRQMWWRGCKIKAIMALVAAILLLVIIILIVMKYRT |
